Consider three molecules from CN115057938A (dated 2022).

As a reminder, the IC50 is the point on the concentration scale where inhibition reaches its midpoint. The low end stands for greater potency, the high end for weaker potency.

Sequences and labels used below:
B1: R1463 (VHH)
VHH: QVQLVESGGGVVQPGGSLRLSCTCSRCTFNWDGMGWFRQAPGKGLEFVATISWSGQEPAYADSVKGRFTISRDNSKNTLYLQMTSLRAEDTAVYYCAAAQYTGASYSILRDQVGYDYWGQGTLVTVSS
notes: also called RX017 VHH-His标签; 对照
B2: R1464 (VHH, not shown: small tags and cut ends)
chain (part 1 of 3): HHHHHHQVQLVESGGGVVQPGGSLRLSCTCSRCTFNWDGMGWFRQAPGKGLEFVATISWSGQEPAYADSVKGRFTISRDNSKNTLYLQMTSLRAEDTAVYYCAAAQYTGASYSILRDQVGYDYWGQGTLVTVSS
chain (part 2 of 3): QVQLVESGGGVVQPGGSLRLSCTCSRCTFNWDGMGWFRQAPGKGLEFVATISWSGQEPAYADSVKGRFTISRDNSKNTLYLQMTSLRAEDTAVYYCAAAQYTGASYSILRDQVGYDYWGQGTLVTVSS
chain (part 3 of 3): QVQLVESGGGVVQPGGSLRLSCTCSRCTFNWDGMGWFRQAPGKGLEFVATISWSGQEPAYADSVKGRFTISRDNSKNTLYLQMTSLRAEDTAVYYCAAAQYTGASYSILRDQVGYDYWGQGTLVTVSS
notes: also called 人源化多价结合蛋白 R1464; His标签-VHH-Linker-VHH-Linker-VHH
B3: R1475 (VHH, not shown: small tags and cut ends)
VHH 1: QVQLVESGGGVVQPGGSLRLSCTCSRCTFNWDGMGWFRQAPGKGLEFVATISWSGQEPAYADSVKGRFTISRDNSKNTLYLQMTSLRAEDTAVYYCAAAQYTGASYSILRDQVGYDYWGQGTLVTVSS
VHH 2: QVQLVESGGGVVQPGGSLRLSCTCSRCTFNWDGMGWFRQAPGKGLEFVATISWSGQEPAYADSVKGRFTISRDNSKNTLYLQMTSLRAEDTAVYYCAAAQYTGASYSILRDQVGYDYWGQGTLVTVSS
notes: also called 人源化多价结合蛋白 R1475; VHH-Linker-VHH-His标签

This experiment has as its target 野生株SARS-COV-2 RBD蛋白(Ag27) (SARS-COV-2 野生株, UniProt P0DTC2 319-541).
Molecule B1 came in with an IC50 of 0.0359 nM. B2 showed a concentration for half-maximal inhibition (IC50) of 0.0272 nM. The value for B3 was 0.0206 nM.
